Publication PMC11662687, “Molecular basis of the phosphorothioation-sensing antiphage defense system IscS–DndBCDE–DndI” (Nucleic Acids Research, 2024)

Columns and labels:
DndI [1] = target: T1, DndI (Salmonella enterica, UniProt E2D680); parameters: gene A6E75_01280; conditions: r3.1 buffer, 10 mM MgCl2, pH 7.9, 37 °C; without or with phosphorothioate pUC19 DNA
DndI [2] = target: T1, DndI; assay: nucleoside triphosphatase assay; assay type: biochemical; parameters: gene A6E75_01280; full length (residues 1-596); homodimer in crystal; 1,788 bp dndI fragment cloned for FRET construct, but ORF printed elsewhere as 1,971 bp; conditions: r3.1 buffer, 10 mM MgCl2, pH 7.9, 37 °C; without or with phosphorothioate pUC19 DNA buffer presumed
DndI R87A = DndI R87A (Salmonella enterica serovar Cerro 87, UniProt E2D680 1-596, R87A); assay: EMSA; conditions: protein: recombinant; tags: His (pET28a); blunt
DndI [3] = target: T2, DndI (Salmonella enterica serovar Cerro 87, UniProt E2D680 1-596); assay: EMSA; EMSA: 100 nM 70 bp DNA, 10 uL, NEB r3.1 buffer (composition and pH not given), 4 C, 1 h, 6% polyacrylamide gel; conditions: protein: recombinant; tags: His (pET28a); chain copies: 2; blunt
T2 sequence: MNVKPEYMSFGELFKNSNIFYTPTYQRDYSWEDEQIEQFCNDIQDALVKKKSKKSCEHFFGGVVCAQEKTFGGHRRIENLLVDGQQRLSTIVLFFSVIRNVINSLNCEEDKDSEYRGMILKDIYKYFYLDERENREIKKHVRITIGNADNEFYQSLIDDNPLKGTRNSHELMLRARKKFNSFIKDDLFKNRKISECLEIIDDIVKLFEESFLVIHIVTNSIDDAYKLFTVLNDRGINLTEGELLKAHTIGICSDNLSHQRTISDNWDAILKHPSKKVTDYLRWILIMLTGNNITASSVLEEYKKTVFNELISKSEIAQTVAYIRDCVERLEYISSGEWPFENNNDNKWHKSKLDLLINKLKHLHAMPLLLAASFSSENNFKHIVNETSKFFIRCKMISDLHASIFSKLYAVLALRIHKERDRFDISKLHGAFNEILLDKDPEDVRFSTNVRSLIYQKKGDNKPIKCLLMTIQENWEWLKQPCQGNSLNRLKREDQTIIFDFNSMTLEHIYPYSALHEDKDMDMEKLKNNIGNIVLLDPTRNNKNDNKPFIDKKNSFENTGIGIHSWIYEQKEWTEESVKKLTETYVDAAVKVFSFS

DndI CTD = target: T3, DndI CTD (Salmonella enterica serovar Cerro 87, UniProt E2D680 239-596); assay: as above; conditions: protein: recombinant; tags: His (pET28a); blunt
T3 sequence: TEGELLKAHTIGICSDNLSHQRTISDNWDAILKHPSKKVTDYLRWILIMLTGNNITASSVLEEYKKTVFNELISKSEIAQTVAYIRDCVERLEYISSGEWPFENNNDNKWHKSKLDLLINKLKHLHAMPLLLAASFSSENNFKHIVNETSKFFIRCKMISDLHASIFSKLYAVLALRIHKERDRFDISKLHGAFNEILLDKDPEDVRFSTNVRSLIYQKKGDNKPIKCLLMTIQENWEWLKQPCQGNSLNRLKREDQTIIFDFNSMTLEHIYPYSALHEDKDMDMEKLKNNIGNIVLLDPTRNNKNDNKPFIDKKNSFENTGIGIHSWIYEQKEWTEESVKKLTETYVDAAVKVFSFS

Question: For Nc1ncnc2c1ncn2[C@@H]1O[C@H](COP(=O)(O)OP(=O)(O)OP(=O)(O)O)[C@@H](O)[C@H]1O [ATP], which “malachite green phosphate release” value (DndI [1]) is on record?
Answer: DndI exhibited an intrinsic ATPase activity

Question: With Nc1nc2c(ncn2[C@@H]2O[C@H](COP(=O)(O)OP(=O)(O)OP(=O)(O)O)[C@@H](O)[C@H]2O)c(=O)[nH]1 [GTP] as the molecule, how does the nucleoside triphosphatase assay (DndI [2]) read?
Answer: DndI demonstrated weak hydrolytic capabilities with regard to GTP, CTP and UTP

B1: 70 bp GAAC/GTTC EMSA DNA (PT-free) (dsDNA)
DNA 1: GCTGCAACAGGATGCCAATAAGACCAAAAAAACCAGCCAGCAAGCAGAGAACGACGAGAGCTGGCAATCT
DNA 2: AGATTGCCAGCTCTCGTCGTTCTCTGCTTGCTGGCTGGTTTTTTTGGTCTTATTGGCATCCTGTTGCAGC
Question: With B1 as the molecule, how does the Kd (DndI R87A) read?
Answer: 3.3 µM

Question: What about the Kd (DndI [3]) of the same molecule?
Answer: 9.31 µM

Question: And the Kd (DndI CTD)?
Answer: 0.66 µM
